Laboratory results: a protein production outcome set (Wang et al. 2014)

Assay: label from the status in PepcDB records
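Further: failed if final PepcDB status was selected cloned or expressed and not failed if soluble or beyond.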

Sequence: MKKLPLVFSGCLLGLAGAGNLILDTLPVLSHLFSLIGLVLWIYFLILHLFNWKETKQELTKPPLLSGMATFPMAGMILSTYVFRVFSYLPLVAQGIWWFSFLLDLTLIAGFTIKFACPGRRVHATPSWTVLYVGIAVAALTYPLVGIIEIAYATLSFGFLLTFYLYPLIYSDLKKHPLPLALLGQEGIYCAPFSLLLASLVRVGGTSLPTWVLIVMILASQSFFFFVLTRLPNILKQGFQPAFSALTFPTIITATSLKMAQGILKLPFLDYLVLAETIICLTILFFVLGAYLIWLRKKV
- protein production: failed

Sequence: MKKLSGIIVLLLAGAALYLALKTSPIDPLAWDAPAAPQMTGVLEPNDTLMKAELLGQGQLHGPEDTAVDSQGRVYAGLADGRVVRLDASGKVETFVDTGGRPLGMDFDAAGNLILADAWKGLLRIDPQGKVETLATEADSVPFAFTDDLDIASDGRIYFSDASSKFHQPDYILDLLEARPHGRLLRYDPSTGKTEVLLKDLYFANGVALSANEDFVLVNETYRYRITRYWLKGEKAGQHEVFIDNLPGLPDNLQGDRKGTFWVALPTPRKADADFLHRHPWLKAQLAKLPRMFLPKPTAYGLVIAIDEQGRIVRSLHDTSGHHLRMITSAKPVGDQLYFGSLENDRIGRLAIPLEHHHHHH
- protein production: not failed

Sequence: MKKLVLTGAAGRLGSYLREPLTALCDTLVSTDIVDDIGTLYAGETYVKADLAQMDQIAPVLEGADMVVHFGAIVDEKPFEELLGPNFVGSYNIWEAGYKAGVKRIVYASSIHAVGMHLKSDFIGIDAEHRPDTFYGLAKCFTEDLGRMYWDKRGLESVHLRILSCAQVNNTRALGSWLSYPDLIQLVTRAIDTPSVGFSIIYGVSNNDRAPVDNAKASFLGYRPIDNAEVYAAEVLAQAEPVDTTDPGQMCHGGPFAKVDLGQSGLAQMNVVNDKKQT
- protein production: failed

Sequence: MKKPSSTPAPRLASLDILRGFDLFLLVFFQPVLWTLAHQLNLPWLNSILFQFDHEVWEGFRFWDLVMPLFLFMTGASMPFSFSKFKDNPDKGPVYRKIIKRFILLFIFGMIVQGNLLGLDPKHLYLYSNTLQAIATGYLIAAIIQLHCNFRWQLIVTALLLLIYWIPMTFLGDFTPEGNFAEKVDRLVLGHFRDGVFWNEDGSWSFSAHYNYTWIWSSLTFGATVMLGAFAGKIMKAGKDNRRKVVQTLLIIGISLIAFSLIWSLQMPIIKRLWTSSMTLFSGGLCFLLMGAFYYRIDYKGHSRGLNWLKIYGMNSITAYILGEVINFRCIAASVSYGLEQYLGGYYQVWLSFANYLIVFLILRIMYRQKIFLKI
- protein production: failed

Sequence: MKKQELIHLHGLLAQVQNHYEAESGTEVDHDEYEELGVKPTSIHKSKTDHKAAVFAIADGIASEMADETKEPVSAAADLEHHHHHH
- protein production: not failed

Sequence: MKKQSLVATSLLAAFITGACTADTNIQAKPIVSQVKAKKLIKPNVLFIAVDDLRVQYGPYDFDKAITPNIDRLVNQGVAFTQAYSNVPVCGASRASMLTGVRPTINRFVAFESADKVAPWAPSIAKVFSDNGYTTYSLGKIFNNLTDHANDWSEFPWRPEGAKNEDSTSGNKKQASLLSRHDYVTSDGVAMAKKGIKNHPAFEKADVVDDAYKNGKIAKRAISDLKRLKKAGKPFFLAVGLKKPHLPFNAPSKYWDLYDESTIELTKIPLKAKDSPSQSDHNWNELRNYGHDGAMPKKGKMSDEMARKLIHGYHAATSYSDALIGNILTELESLGLEENTIVVLWGDHGWSLGEHTHWAKHSSYDVTNHIPLIIKVPGMTNGEFSKGLVESVDIFPTLTQLAGLPAPSSLQGDSLVPMLKNPQATVNDAVYPRWKNADSIRTPNYMYTEWRNKKNNKVIARMLFDHRVDPRETINVAENFKYAQVVVDLHNQLAAHIAQVEK
- protein production: failed

Sequence: MKKSKRKNAQAQEAQETEVLVQEEAEELPEFPEGEPDPDLEDPDLTLEDDLLDLPEEGEGLDLEEEEEDLPIPKISTSDPVRQYLHEIGQVPLLTLEEEVELARKVEEGMEAIKKLSEITGLDPDLIREVVRAKILGSARVRHIPGLKETLDPKTVEEIDQKLKSLPKEHKRYLHIAREGEAARQHLIEANLRLVVSIAKKYTGRGLSFLDLIQEGNQGLIRAVEKFEYKRRFKFSTYATWWIRQAINRAIADQARTIRIPVHMVETINKLSRTARQLQQELGREPTYEEIAEAMGPGWDAKRVEETLKIAQEPVSLETPIGDEKDSFYGDFIPDEHLPSPVDAATQSLLSEELEKALSKLSEREAMVLKLRKGLIDGREHTLEEVGAFFGVTRERIRQIENKALRKLKYHESRTRKLRDFLD
- protein production: not failed

Sequence: MKKSNIKTLEQFKDQNYGKKGTAKRDSLEMGYDTFKIGALIQEARIEKGMTQEELAIKCGTTKSYISRIENNIKEVRISTLQKIVELGFGGQLQLSIKFLEHHHHHH
- protein production: not failed

Sequence: MKKTGWGILGAVAAFTGYAYWSTKHLTVTDYEILSDKIPAEWDGATFVQLSDLHSASFGLYNNPLLSIVNELAPDAVFLTGDMIDGDESPFVTMAVVRKLAKEFPVFYVSGNHEGRSAFYEDFKADMEKHHVAVLENERYFLRKDGAAIMVAGVKDPRFVRDDWAEKELPKQVWEEEALKEALDEATANLSPDYFTILLAHRPEFWPLYQAYPVDLVLSGHAHGGQFRLPLTEGLFAPGQGFMPKWTAGLHSAGGKSLIVSRGLGNVTKLPRLFNDPEIIRITLKAKGDARENLEHHHHHH
- protein production: failed

Sequence: MKKTLIALMLGTISFTTFANDYLPSGGYETLETRSGQLTFENGFEHGVPTNKTSQKLFDELDYQRAVQGYIWATPIVSFYKWKNDHYQTWGTENGQLVYQAGYESKLGGLTYNTSTPYLIGYMNLNNGPIVINLPDTQLRGAVHNMWQIGKEQMTKPGKYVIYKAGDVAPKVKGATLIAMDTNDFFFGVRLMNKDAKVRSTMMNSIQKGITDINGNQLTNKGIYHVKRGIDHKQPRGMEFWEVVNQAIQANPVQERDRMMMDMLRPLGIEKGKPFIPTPKQQSLLKEAAIVGEAMTKNIDFNKTGRLDHAEYGPKGNPWEIATASTPNQDRNNGMDLDGRAAWFYEAVTNDIAMHGMDNGGWGQVYLDNYYSGEKDHGLDGGKHYTLTIKNPNTYADLFWTITVYNVENRAIIENDLGRADVGSNIKGSVYNKDGSITLHFSPKKPKGVAEANWVQTNEKEGWFVYFRAYSPKKAFVDEEPKTLLPNFEEVK
- protein production: failed

Sequence: MKKTRRILLGLALIIGLSVGAGCRSTASKSKTANASQSATTRTVTDMAGTKVKIPTKVTRVADLWHANNQVVLLLGGQKKLVATTQMIKQSPWFKTIDPGISRVTAPFAGDDLQTEELLKAKPDVVIAADTAQVKQARKAKIPTINAMYQTFAGLRQSVNLTAQVLGGTAPKIAKAYQKTLTTNLNDVKNRLKDVTFKPKVLHFVNATNLNQVDGTGTIVNEWIKAAGGQNALKQKGNMISVTTETLAKSDPDVIIVGSATTAEARAALKKNAVLSKLTAVKKNRVYGNPQGTFPWDRYSAEEALQVLWAAKKLHPDQFQDLNMVAKTKAFYQQFYHYQLSTAQANRLLNGASSPK
- protein production: failed

Sequence: MKKVCLSLLMGLMVQMTFGQTLEKMQWFNEPEQWEIKNNVLSMSVTPQSDYWRISHYGFTVDDAPFYYATYGGEFEAKVKVVGEYKERFDQAGLMLRIDHENYIKAGIEFVDGKFNLSTVVTHKTSDWSVITLDKTVPYIWIKAVRRLDAVEIFYSFDDKTYTLMRNAWLQDHIPVKVGLMAACPDGSGFNAKFEYFQVKHLPDQRRVEWLKKNAELEHHHHHH
- protein production: failed

Sequence: MKKVIGAATATVFGLGAFTTTATAETIVTADVLNVREKPTTESKVVEKVKNGEELKVINTEDGWSKIELNGKEVFVSSEFTKDIYHVTADLLNVRSESNTESKILGRLKKDDVIESTNQVKDGWLQFEYKGKTAYVNVSFLSSKAPIEKKADEKTKQVAKVQKSVKAKEEAKTQKITKAKETIKPKEEVKVQEVAKPKEEVKVQEVAKPKEEVKVQEVAKPKEEVKVQEVVKPKEEVKVQEVVKPKEEVKVQEVAKAKEEAKVQEIAKAKEEAKAQEIAKAKEEAKAQEIAKAKEEAKAQEIAKAKEEAKAQEIAKAKEEAKAQEIAKAKEEAKAQEIAKAKEEAKAQEIAKAKEEAKAQEIAKAKEEAKAQEIAKAKEEAKEREIAKAKEEAKAREIAKAKEEEKAREALKAKEESKNNVQSAKRELTVVATAYTADPSENGTYGGRVLTAMGHDLTANPNMRIIAVDPKVIPLGSKVWVEGYGEAIAGDTGSAIKGNRIDVLMGSKSKAMNWGRQTVKVKILLEHHHHHH
- protein production: failed

Sequence: MKKWFPALLFSLCVSGESSAWNHNIVFYSLGNVNSYQGGNVVITQRPQFITSWRPGIATVTWNQCNGPEFADGSWAYYREYIAWVVFPKKVMTQNGYPLFIEVHNKGSWSEENTGDNDSYFFLKGYKWDERAFDAGNLCQKPGETTRLTEKFDDIIFKVALPADLPLGDYSVTIPYTSGIQRHFASYLGARFKIPYNVAKTLPRENEMLFLFKNIGGCRPSAQSLEIKHGDLSINSANNHYAAQTLSVSCDVPANIRFMLLRNTTPTYSHGKKFSVGLGHGWDSIVSVNGVDTGETTMRWYKAGTQNLTIGSRLYGESSKIQPGVLSGSATLLMILP
- protein production: failed

Sequence: MKLAKLIPKRFFIRSKDRSTVSKSPTAFSFGSASSSSGQDCKNSGGDGGGGSVTPTSILPEVPSPYSYVEILQAFKLIDRDNDGAVSRHDLESLLSRLGPDPLTEEEINVMLKEVDCDGDGTIRLEELASRVVSLDPARDSTELKETFEFFDADRDGLISADELLRVFSTIGDERCTLDDCKRMIADVDEDGDGFVCFTEFSRMMDLQR
- protein production: failed

Sequence: MKLALITDTSAYLPEAIENHEDVYVLDIPIIIDGKTYIEGQNLTLDQYYDKLAASKELPKTSQPSLAELDDLLCQLEKEGYTHVLGLFIAAGISGFWQNIQFLIEEHPNLTIAFPDTKITSAPQGNLVRNALMCSREGMDFDVIVNKIQSQIEKIEGFIVVNDLNHLVKGGRLSNGSAIIGNLLSIKPVLHFNEEGKIVVYEKVRTEKKALKRLAEIVKEMTADGEYDIAIIHSRAQDKAEQLYNLLAKAGLKDDLEIVSFGGVIATHLGEGAVAFGITPKN
- protein production: not failed

Sequence: MKLDDLNLFRLVVENGSYTATSRKTMIPVATITRRIQALEDSVNLRLLNRHARKLSLTEAGERFYHECSPLLQRLTSTAEEITDDCRGASGKIKISAPYNLTKRMMMPMFNDFMKKYPDINIELTTENNADQLDPTEWDVIFRVGPQRDSSLIARKIGEVKDILVASQDYLAANPAPNHAEELSNHSLLKGYPLIKWTLINSKGESVVNVERGRFQANALNVVRSACSEGLGITLMPDVMIKEYIESGELLRVLPDWSANPRDIYMLYNHKDHLPEKVRLFIDFVIAYNIH
- protein production: failed

Sequence: MKLDWNGIDTVLLDMDGTLLDRHFDDHFWLEHVPKRYAAQNGIPLDEAKKLLYALFRSQERTLNWTDLDYWSERLGLDIPVLKQEIDHLIAVHPGVVEFLVFLRRHGKQAWLVTNAHGKTLSLKMRKTRLGPYFTGIISAHDLGLPKEDVRFWEKLQERVPYEPSRTLLGEDSETNLGTAEEYGIAHLIYVSRYSSTVTPTASDRYASIHYFTQLIPAAHTDET
- protein production: failed

Sequence: MKLEIGYNHPFEIRKERYESDHVCNFSVLYISDLHLTVFSKDICTRLSKCIQELNPTIIILGGDYIDCRNGWDYLSTFFKFLSARKNVFSIAGNHDYFYGIDEIKKLIESNNIHWLENQSAVVNIQEYNILLTGNNETQSSIPADFNILCLHKPVSLDAFKIPYHIAFAGHLHGCQCVFWQNENGLYPGRFFYTFNFLRRQVKNCLYLISKGLGDTLPIRFNCKKDIIFVEIKNNSNKLEHHHHHH
- protein production: failed

Sequence: MKLERILPFSKTLIKQHITPESIVVDATCGNGNDTLFLAEQVPEGHVYGFDIQDLALENTRDKVKDFNHVSLIKDGHENIEHHINDAHKGHIDAAIFNLGYLPKGDKSIVTKPDTTIQAINSLLSLMSIEGIIVLVIYHGHSEGQIEKHALLDYLSTLDQKHAQVLQYQFLNQRNHAPFICAIEKIS
- protein production: failed
